Measurements published in US20230201308A1, “TREATMENT OF CORONAVIRUS INFECTION WITH […]” (Eiger Biopharmaceuticals, Inc., priority 2020, published 2023).
Where two headings read alike, the source gives them in different places.

Test system: SARS-CoV-2
Details: for All cause death or hospitalization for COVID-19: Bayes prob, Dichotomous / All cause death or hospitalization for COVID-19: Bayes prob, TTE / All cause death or hospitalization for COVID-19: HR (95% CrI), TTE / All cause death or hospitalization for COVID-19: RR (95% CrI), Dichotomous / ER visit ≥6 h or hospitalization due to COVID-19: Bayes prob, Dichotomous / ER visit ≥6 h or hospitalization due to COVID-19: Bayes prob, TTE / ER visit ≥6 h or hospitalization due to COVID-19: HR (95% CrI), TTE / ER visit ≥6 h or hospitalization due to COVID-19: RR (95% CrI), Dichotomous: vs placebo
[1] = ITT preliminary, n=916 vs placebo 1020, 28 days
[2] = ITT preliminary, n=916 vs placebo 1020, 28 days, listed as Interferon lambda
[3] = ITT preliminary, n=916 vs placebo 1020, 28 days, listed as Lambda
[4] = Treated within 3 days of symptom onset, n=539 vs placebo 586
[5] = Treated within 5 days of symptom onset, n=800 vs placebo 879

B1: pegylated interferon lambda-1a (protein)
chain: MKPTTTGKGCHIGRFKSLSPQELASFKKARDALEESLKLKNWSCSSPVFPGNWDLRLLQVRERPVALEAELALTLKVLEAAAGPALEDVLDQPLHTLHHILSQLQACIQPQPTAGPRPRGRLHHWLHRLQEAPKKESAGCLEASVTFNLFRLLTRDLKYVADGNLSLRTSTHPEST
modifications: PEG
notes: 180 mcg subcutaneous injection
- Death or hospitalization due to COVID-19, % of patients [1]: (2.4%)
- Death or hospitalization due to COVID-19, RR (95% CrI) vs placebo [1]: 0.61 (0.36, 0.99)
- Hospitalization for COVID-19, RR (95% CrI) vs placebo [1]: 0.58 (0.34, 0.95)
- Hospitalization or ER (any duration) for COVID-19, % of patients [1]: (10.6%)
- Hospitalization or ER (any duration) for COVID-19, Pr (Superiority) [1]: 0.984
- Hospitalization or ER (any duration) for COVID-19, RR (95% CrI) vs placebo [1]: 0.77 (0.60, 0.98)
- Hospitalization or ER ≥6 h for COVID-19, Pr (Superiority) [1]: 0.999
- Hospitalization or ER ≥6 h for COVID-19, RR (95% CrI) vs placebo [1]: 0.50 (0.31, 0.77)
- Death due to COVID-19, % of patients [2]: (0.1%)
- Hospitalization for COVID-19, % of patients [2]: (2.3%)
- Hospitalization or ER ≥6 h for COVID-19, % of patients [2]: (2.7%)
- Death due to COVID-19, % of patients [3]: 0.1%
- Hospitalization for COVID-19, % of patients [3]: 2.3%
- Hospitalization or ER ≥6 h for COVID-19, % of patients [3]: 2.7%
- All cause death or hospitalization for COVID-19: events/patients (Omicron and not vaccinated): 0/9
- ER visit ≥6 h or hospitalization due to COVID-19: events/patients (Omicron and not vaccinated): 0/9
- All cause death or hospitalization for COVID-19: Bayes prob, Dichotomous (Omicron and not vaccinated): 0.532
- All cause death or hospitalization for COVID-19: Bayes prob, TTE (Omicron and not vaccinated): 0.912
- All cause death or hospitalization for COVID-19: HR (95% CrI), TTE (Omicron and not vaccinated): 0.00 (0.00, 4.43)
- All cause death or hospitalization for COVID-19: RR (95% CrI), Dichotomous (Omicron and not vaccinated): 0.90 (0.03, 10.04)
- ER visit ≥6 h or hospitalization due to COVID-19: Bayes prob, Dichotomous (Omicron and not vaccinated): 0.532
- ER visit ≥6 h or hospitalization due to COVID-19: Bayes prob, TTE (Omicron and not vaccinated): 0.912
- ER visit ≥6 h or hospitalization due to COVID-19: HR (95% CrI), TTE (Omicron and not vaccinated): 0.00 (0.00, 4.43)
- ER visit ≥6 h or hospitalization due to COVID-19: RR (95% CrI), Dichotomous (Omicron and not vaccinated): 0.90 (0.03, 10.04)
- All cause death or hospitalization for COVID-19: events/patients (Omicron and onset ≤3 days): 0/281
- ER visit ≥6 h or hospitalization due to COVID-19: events/patients (Omicron and onset ≤3 days): 0/281
- All cause death or hospitalization for COVID-19: Bayes prob, Dichotomous (Omicron and onset ≤3 days): 0.977
- All cause death or hospitalization for COVID-19: Bayes prob, TTE (Omicron and onset ≤3 days): 0.9982
- All cause death or hospitalization for COVID-19: HR (95% CrI), TTE (Omicron and onset ≤3 days): 0.00 (0.00, 0.35)
- All cause death or hospitalization for COVID-19: RR (95% CrI), Dichotomous (Omicron and onset ≤3 days): 0.14 (0.00, 0.96)
- ER visit ≥6 h or hospitalization due to COVID-19: Bayes prob, Dichotomous (Omicron and onset ≤3 days): 0.998
- ER visit ≥6 h or hospitalization due to COVID-19: Bayes prob, TTE (Omicron and onset ≤3 days): 0.9999
- ER visit ≥6 h or hospitalization due to COVID-19: HR (95% CrI), TTE (Omicron and onset ≤3 days): 0.00 (0.00, 0.17)
- ER visit ≥6 h or hospitalization due to COVID-19: RR (95% CrI), Dichotomous (Omicron and onset ≤3 days): 0.08 (0.00, 0.50)
- All cause death or hospitalization for COVID-19: events/patients (Omicron and vaccinated): 2/428
- ER visit ≥6 h or hospitalization due to COVID-19: events/patients (Omicron and vaccinated): 2/428
- All cause death or hospitalization for COVID-19: Bayes prob, Dichotomous (Omicron and vaccinated): 0.876
- All cause death or hospitalization for COVID-19: Bayes prob, TTE (Omicron and vaccinated): 0.911
- All cause death or hospitalization for COVID-19: HR (95% CrI), TTE (Omicron and vaccinated): 0.34 (0.05, 1.52)
- All cause death or hospitalization for COVID-19: RR (95% CrI), Dichotomous (Omicron and vaccinated): 0.46 (0.09, 1.69)
- ER visit ≥6 h or hospitalization due to COVID-19: Bayes prob, Dichotomous (Omicron and vaccinated): 0.999
- ER visit ≥6 h or hospitalization due to COVID-19: Bayes prob, TTE (Omicron and vaccinated): 0.9998
- ER visit ≥6 h or hospitalization due to COVID-19: HR (95% CrI), TTE (Omicron and vaccinated): 0.11 (0.02, 0.42)
- ER visit ≥6 h or hospitalization due to COVID-19: RR (95% CrI), Dichotomous (Omicron and vaccinated): 0.17 (0.04, 0.53)
- All cause death or hospitalization for COVID-19: events/patients (Omicron subgroup): 2/439
- ER visit ≥6 h or hospitalization due to COVID-19: events/patients (Omicron subgroup): 2/439
- All cause death or hospitalization for COVID-19: Bayes prob, Dichotomous (Omicron subgroup): 0.914
- All cause death or hospitalization for COVID-19: Bayes prob, TTE (Omicron subgroup): 0.9477
- All cause death or hospitalization for COVID-19: HR (95% CrI), TTE (Omicron subgroup): 0.29 (0.04, 1.27)
- All cause death or hospitalization for COVID-19: RR (95% CrI), Dichotomous (Omicron subgroup): 0.41 (0.08, 1.45)
- ER visit ≥6 h or hospitalization due to COVID-19: Bayes prob, Dichotomous (Omicron subgroup): >0.9999
- ER visit ≥6 h or hospitalization due to COVID-19: Bayes prob, TTE (Omicron subgroup): 0.9999
- ER visit ≥6 h or hospitalization due to COVID-19: HR (95% CrI), TTE (Omicron subgroup): 0.11 (0.02, 0.43)
- ER visit ≥6 h or hospitalization due to COVID-19: RR (95% CrI), Dichotomous (Omicron subgroup): 0.17 (0.04, 0.50)
- risk reduction, hospitalization alone (Phase 3 study, single s.c. dose within 7 days of symptom onset): 44%
- Log odds (95% CrI) vs Placebo, Bayesian logistic regression (Table 11 Model 1: Treatment alone): −0.69 (−1.17, −0.26)
- Log odds vs Placebo, Bayesian logistic regression (Table 11 Model 2: Unvaccinated as an effect-modifier): −0.67
- OR (95% CrI) vs Placebo, Bayesian logistic regression (Table 12 Model 1: Treatment alone): 0.50 (0.31, 0.77)
- OR (95% CrI) vs Placebo, Bayesian logistic regression (Table 12 Model 2: Treatment + Vaccination): 0.49 (0.29, 0.78)
- OR (95% CrI) vs Placebo, Bayesian logistic regression (Table 12 Model 3: Treatment + Vaccination + Early onset (≤3 days)): 0.48 (0.29, 0.77)
- OR (95% CrI) vs Placebo, Bayesian logistic regression (Table 12 Model 4: Treatment + Vaccination + Early onset (≤5 days)): 0.48 (0.29, 0.77)
- Death due to COVID-19, % of patients [4]: (0%)
- Death due to COVID-19, RR (95% CrI) vs placebo [4]: 0.21 (0.01, 1.66)
- Death or hospitalization due to COVID-19, % of patients [4]: (1.5%)
- Death or hospitalization due to COVID-19, RR (95% CrI) vs placebo [4]: 0.40 (0.18, 0.83)
- Hospitalization for COVID-19, % of patients [4]: (1.5%)
- Hospitalization for COVID-19, RR (95% CrI) vs placebo [4]: 0.40 (0.18, 0.82)
- Hospitalization or ER (any duration) for COVID-19, % of patients [4]: (10%)
- Hospitalization or ER (any duration) for COVID-19, Pr (Superiority) [4]: 0.964
- Hospitalization or ER (any duration) for COVID-19, RR (95% CrI) vs placebo [4]: 0.75 (0.54, 1.03)
- Hospitalization or ER ≥6 h for COVID-19, % of patients [4]: (2%)
- Hospitalization or ER ≥6 h for COVID-19, Pr (Superiority) [4]: 0.996
- Hospitalization or ER ≥6 h for COVID-19, RR (95% CrI) vs placebo [4]: 0.43 (0.21, 0.81)
- Death due to COVID-19, % of patients [5]: (0.1%)
- Death due to COVID-19, RR (95% CrI) vs placebo [5]: 0.39 (0.05, 1.96)
- Death or hospitalization due to COVID-19, % of patients [5]: (2.2%)
- Death or hospitalization due to COVID-19, RR (95% CrI) vs placebo [5]: 0.56 (0.32, 0.96)
- Hospitalization for COVID-19, % of patients [5]: (2.1%)
- Hospitalization for COVID-19, RR (95% CrI) vs placebo [5]: 0.53 (0.29, 0.91)
- Hospitalization or ER (any duration) for COVID-19, % of patients [5]: (10.2%)
- Hospitalization or ER (any duration) for COVID-19, Pr (Superiority) [5]: 0.992
